This data set concerns the target human PSMA extracellular part (wtPSMA) (human, UniProt Q04609 44-750). Kind of data set: X-ray crystallography 2.2 A; 2-PMPA, active-site Zn2+; IC50: 20 mM Tris, 150 mM NaCl, pH 8.0, 37 C preincubation 10 min; flow cytometry: 10 mM Tris, 150 mM NaCl, pH 7.4, 0.5% fish gelatin (inhibitor preincubation 4). As to conditions: protein: recombinant; tags: N-terminal Strep-FLAG; chain copies: 2; stem-loop: S1 7 bp, 4x1 internal loop, S2 4 bp, 16-nt hairpin loop.

This note sets out measurements from paper PMC7641732, “Structural basis of prostate-specific membrane antigen recognition by the A9g RNA aptamer”.

Sequence of human PSMA extracellular part (wtPSMA) (Q04609 44-750): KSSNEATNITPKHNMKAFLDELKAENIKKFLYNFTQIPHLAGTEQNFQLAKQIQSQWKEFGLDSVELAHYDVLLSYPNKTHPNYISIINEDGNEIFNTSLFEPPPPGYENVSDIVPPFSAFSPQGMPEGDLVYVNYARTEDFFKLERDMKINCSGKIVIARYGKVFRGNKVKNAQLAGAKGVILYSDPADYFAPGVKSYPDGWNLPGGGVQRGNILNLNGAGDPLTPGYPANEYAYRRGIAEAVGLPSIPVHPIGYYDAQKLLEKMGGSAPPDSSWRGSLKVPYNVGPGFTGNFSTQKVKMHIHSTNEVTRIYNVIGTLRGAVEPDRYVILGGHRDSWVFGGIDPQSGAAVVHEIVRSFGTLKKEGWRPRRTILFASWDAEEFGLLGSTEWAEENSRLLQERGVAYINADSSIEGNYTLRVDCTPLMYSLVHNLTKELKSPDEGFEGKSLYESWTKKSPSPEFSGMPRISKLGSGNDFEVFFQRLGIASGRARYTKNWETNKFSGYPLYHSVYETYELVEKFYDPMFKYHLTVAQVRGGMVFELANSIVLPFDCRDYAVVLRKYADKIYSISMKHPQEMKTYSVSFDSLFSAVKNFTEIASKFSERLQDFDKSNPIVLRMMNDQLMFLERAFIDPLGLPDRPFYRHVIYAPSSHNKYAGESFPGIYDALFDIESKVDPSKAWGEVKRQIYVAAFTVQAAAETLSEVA

On to GGGACCGAAAAAGACCUGACUUCUAUACUAAGUCUACGUUCCC (structured_RNA, 2'-deoxy-2'-fluoro on all C and U) [A9g], for which the binding result is listed as “binds”.
